The numbers were not newly measured in publication PMC6769837, which cites them from elsewhere.

The target of data set [1] is integrin αvβ6 (Homo sapiens) (UniProt P06756).
Data set [2] has as its target integrin αvβ8 (Homo sapiens) (UniProt P06756).
Data set [3] has as its target integrin αvβ3 (Homo sapiens) (UniProt P06756).

A word on the Kd: it is the equilibrium constant for the complex coming apart. Turning to LAP-TGFβ1 LAP (from UniProt P01137), the results for the Kd in data set [1], in data set [2] and in data set [3] were 10.3 nM, 0.013 nM and 8500 nM, respectively.
